Results taken from publication PMC3846842.
“And” between values parts separate entries of the source, which are not always exact repeats. Equal entries are not always repeated.

Key:
[1] = molecular target: BtcA (Bordetella pertussis); assay: cross-linking; BtcA about 4 mg/ml in PBS with serially diluted EGS (from 3 mM), 30 min at RT, SDS-PAGE
[2] = molecular target: BtcA (Bordetella pertussis); assay: SEC-RALS; BtcA (525 ug) on Superdex 200 10/300 with triple detector array; 20 mM Tris pH 8.0, 350 mM NaCl, 20 mM EDTA
[3] = molecular target: BteA287 (BteA N-terminal domain, residues 1-287) (Bordetella pertussis); assay: MALDI-TOF MS; BtcA-BteA287 complex, linear mode, m/z 20,000 to 150,000; the methods describe EGS cross-linking of the complex before MALDI-TOF analysis
[4] = molecular target: BteA287 (BteA N-terminal domain, residues 1-287) (Bordetella pertussis); assay: MST; labeled BteA287 or BteA32-287 (NT-495 BLUE-NHS) mixed with BtcA serially diluted from 200 uM or 100 uM; 20 mM Tris 8, 350 mM NaCl, 20 mM EDTA, 0.05% Tween-20; 20°C; logistic dose-response fit, three measurements averaged
[5] = molecular target: BteA32-287 (Bordetella pertussis); assay: as above

Substance	stoichiometry N [1]	stoichiometry N [2]	stoichiometry N (BtcA per BteA287) [3]	Kd [4]	Kd [5]	stoichiometry N [3]
BtcA (natural protein)	2	2	1 and 2	6.6 µM	14 µM	
BteA287 (BteA N-terminal domain, residues 1-287) (domain or fragment)						2
